This note sets out measurements from paper PMC7953826 (Nature cell biology, 2020).

For this experiment, the target named is actin (rabbit skeletal muscle G-actin, polymerised to F-actin) (rabbit, UniProt P68135 1-377). Briefly: co-sedimentation.

B1: Drosophila dynamin shibire (Shi) (enzyme)
chain: MDSLITIVNKLQDAFTSLGVHMQLDLPQIAVVGGQSAGKSSVLENFVGKDFLPRGSGIVTRRPLILQLINGVTEYGEFLHIKGKKFSSFDEIRKEIEDETDRVTGSNKGISNIPINLRVYSPHVLNLTLIDLPGLTKVAIGDQPVDIEQQIKQMIFQFIRKETCLILAVTPANTDLANSDALKLAKEVDPQGVRTIGVITKLDLMDEGTDARDILENKLLPLRRGYIGVVNRSQKDIEGRKDIHQALAAERKFFLSHPSYRHMADRLGTPYLQRVLNQQLTNHIRDTLPGLRDKLQKQMLTLEKEVEEFKHFQPGDASIKTKAMLQMIQQLQSDFERTIEGSGSALVNTNELSGGAKINRIFHERLRFEIVKMACDEKELRREISFAIRNIHGIRVGLFTPDMAFEAIVKRQIALLKEPVIKCVDLVVQELSVVVRMCTAKMSRYPRLREETERIITTHVRQREHSCKEQILLLIDFELAYMNTNHEDFIGFANAQNKSENANKTGTRQLGNQVIRKGHMVIQNLGIMKGGSRPYWFVLTSESISWYKDEDEKEKKFMLPLDGLKLRDIEQGFMSMSRRVTFALFSPDGRNVYKDYKQLELSCETVEDVESWKASFLRAGVYPEKQETQENGDESASEESSSDPQLERQVETIRNLVDSYMKIVTKTTRDMVPKAIMMLIINNAKDFINGELLAHLYASGDQAQMMEESAESATRREEMLRMYRACKDALQIIGDVSMATVSSPLPPPVKNDWLPSGLDNPRLSPPSPGGVRGKPGPPAQSSLGGRNPPLPPSTGRPAPAIPNRPGGGAPPLPGGRPGGSLPPPMLPSRVSGAVGGAIVQQSGANRYVPESMRGQVNQAVGQAAINELSNAFSSRFK
For the molecule B1, binding was put at a Kd of 190 ± 30 nM.
